Like-named read-outs stand apart in the source and are kept apart here.
T1: recombinant soluble human IL-6 receptor (SR344) (human, UniProt P08887 20-344)
T1 construct: In the 'membrane-type IL-6 receptor' Biacore assays the same SR344 was biotinylated and immobilized via streptavidin; also called soluble IL-6 receptor; membrane-type IL-6 receptor (as biotinylated SR344 immobilized on the sensor chip)
T1 sequence (looked up): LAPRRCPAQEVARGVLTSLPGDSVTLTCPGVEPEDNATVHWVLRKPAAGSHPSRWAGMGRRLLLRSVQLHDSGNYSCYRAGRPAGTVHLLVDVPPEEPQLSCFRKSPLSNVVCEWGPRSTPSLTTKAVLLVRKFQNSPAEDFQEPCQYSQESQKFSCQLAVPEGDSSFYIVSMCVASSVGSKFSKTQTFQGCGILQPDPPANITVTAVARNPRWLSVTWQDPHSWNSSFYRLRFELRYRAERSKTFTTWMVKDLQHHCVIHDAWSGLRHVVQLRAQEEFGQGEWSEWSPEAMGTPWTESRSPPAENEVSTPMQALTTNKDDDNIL


Assays:
[1] = biological target: T1, recombinant soluble human IL-6 receptor …; test: Biacore T100, biotinylated SR344 immobilized via streptavidin (membrane-type IL-6 receptor model), antibody as analyte; ratio of kd at pH 5.8 to pH 7.4
Experimental: (§1) Binding to the membrane-type IL-6 receptor was evaluated by evaluating binding to the IL-6 receptor immobilized on a sensor chip. SR344 was biotinylated in accordance with a method known among persons with ordinary skill in the art, and the biotinylated SR344 was immobilized on the sensor chip via streptavidin using the affinity between streptavidin and biotin. All the measurements were carried out at 37° C. The mobile phase buffer was 10 mM MES (pH 5.8), 150 mM NaCl and 0.05% Tween 20.
(§2) The pH-dependently-binding clones were injected under the condition of pH 7.4 to allow them to bind to SR344, and then, the pH-dependent dissociation of each clone at the pH of the mobile phase, pH 5.8, was observed. The results are shown in FIG. 21 (results for Fv1-M71, Fv1-M73, Fv3-M71, and Fv3-M73 are shown in FIG. 21, while results for other clones are shown in FIGS. 17 and 19). Analyses were carried out in the same manner as in Example 10 and the pH dependencies of the dissociation rate constants of all of the eleven types of clones are shown in Table 12.

[2] = biological target: T1, recombinant soluble human IL-6 receptor …; test: as above; remark: listed apart in the source
Experimental: as §1, §2

kd(pH 5.8)/kd(pH 7.4) [1] | kd(pH 5.8)/kd(pH 7.4) [2] | Binder
17.6 | 17.6 | Fv4-M58 (antibody, also called VH3-M58/VL3-CK) heavy: QVQLQESGPGLVKPSETLSLTCAVSGHSISHDHAWSWVRQPPGEGLEWIGFISYSGITNYNPSLQGRVTISRDNSKNTLYLQMNSLRAEDTAVYYCARSLARTTAMDYWGEGTLVTVSSASTKGPSVFPLAPSSKSTSGGTAALGCLVKDYFPEPVTVSWNSGALTSGVHTFPAVLQSSGLYSLSSVVTVPSSNFGTQTYTCNVDHKPSNTKVDKTVERKSCVECPPCPAPPVAGPSVFLFPPKPKDTLMISRTPEVTCVVVDVSQEDPEVQFNWYVDGVEVHNAKTKPREEQFNSTFRVVSVLTVVHQDWLNGKEYKCKVSNKGLPAPIEKTISKTKGQPREPQVYTLPPSQEEMTKNQVSLTCLVKGFYPSDIAVEWESNGQPENNYKTTPPMLDSDGSFFLYSKLTVDKSRWQEGNVFSCSVMHEALHNHYTQKSLSLSP light: DIQMTQSPSSLSASVGDSVTITCQASTDISSHLNWYQQKPGKAPELLIYYGSHLLSGVPSRFSGSGSGTDFTFTISSLEAEDAATYYCGQGNRLPYTFGQGTKVEIERTVAAPSVFIFPPSDEQLKSGTASVVCLLNNFYPREAKVQWKVDNALQSGNSQESVTEQDSKDSTYSLSSTLTLSKADYEKHKVYACEVTHQGLSSPVTKSFNRGEC
 | 11.3 | Fv1-M71 (antibody, human IgG2, kappa, also called VH2-M71/VL2-CK) heavy: QVQLQESGPGLVKPSETLSLTCAVSGYSISHDHAWSWVRQPPGEGLEWIGHISYSGITNYNPHLQDRVTISRDTSKNQFSLKLSSVTAADTAVYYCARFLARITAHDHWGEGTLVTVSSASTKGPSVFPLAPCSRSTSESTAALGCLVKDYFPEPVTVSWNSGALTSGVHTFPAVLQSSGLYSLSSVVTVPSSNFGTQTYTCNVDHKPSNTKVDKTVERKCCVECPPCPAPPVAGPSVFLFPPKPKDTLMISRTPEVTCVVVDVSHEDPEVQFNWYVDGVEVHNAKTKPREEQFNSTFRVVSVLTVVHQDWLNGKEYKCKVSNKGLPAPIEKTISKTKGQPREPQVYTLPPSREEMTKNQVSLTCLVKGFYPSDIAVEWESNGQPENNYKTTPPMLDSDGSFFLYSKLTVDKSRWQQGNVFSCSVMHEALHAHYTQKSLSLSPGK light: DIQMTQSPSSLSASVGDSVTITCQASRDISSHLNWYQQKPGKAPELLIYYGSHLESGVPSRFSGSGSGTDFTFTISSLEAEDAATYYCGQGNRLPYTFGQGTKVEIERTVAAPSVFIFPPSDEQLKSGTASVVCLLNNFYPREAKVQWKVDNALQSGNSQESVTEQDSKDSTYSLSSTLTLSKADYEKHKVYACEVTHQGLSSPVTKSFNRGEC
 | 8.8 | Fv1-M73 (antibody, also called VH2-M73/VL2-CK) heavy: QVQLQESGPGLVKPSETLSLTCAVSGYSISHDHAWSWVRQPPGEGLEWIGHISYSGITNYNPHLQDRVTISRDTSKNQFSLKLSSVTAADTAVYYCARFLARITAHDHWGEGTLVTVSSASTKGPSVFPLAPSSKSTSGGTAALGCLVKDYFPEPVTVSWNSGALTSGVHTFPAVLQSSGLYSLSSVVTVPSSNFGTQTYTCNVDHKPSNTKVDKTVERKSCVECPPCPAPPVAGPSVFLFPPKPKDTLMISRTPEVTCVVVDVSQEDPEVQFNWYVDGVEVHNAKTKPREEQFNSTFRVVSVLTVVHQDWLNGKEYKCKVSNKGLPAPIEKTISKTKGQPREPQVYTLPPSQEEMTKNQVSLTCLVKGFYPSDIAVEWESNGQPENNYKTTPPMLDSDGSFFLYSKLTVDKSRWQEGNVFSCSVMHEALHAHYTQKSLSLSP light: DIQMTQSPSSLSASVGDSVTITCQASRDISSHLNWYQQKPGKAPELLIYYGSHLESGVPSRFSGSGSGTDFTFTISSLEAEDAATYYCGQGNRLPYTFGQGTKVEIERTVAAPSVFIFPPSDEQLKSGTASVVCLLNNFYPREAKVQWKVDNALQSGNSQESVTEQDSKDSTYSLSSTLTLSKADYEKHKVYACEVTHQGLSSPVTKSFNRGEC
 | 10.7 | Fv3-M71 (antibody, human IgG2, kappa, also called VH4-M71/VL1-CK) heavy: QVQLQESGPGLVKPSETLSLTCAVSGHSISHDHAWSWVRQPPGEGLEWIGFISYSGITNYNPTLQGRVTISRDNSKNTLYLQMNSLRAEDTAVYYCARSLARTTAMDYWGEGTLVTVSSASTKGPSVFPLAPCSRSTSESTAALGCLVKDYFPEPVTVSWNSGALTSGVHTFPAVLQSSGLYSLSSVVTVPSSNFGTQTYTCNVDHKPSNTKVDKTVERKCCVECPPCPAPPVAGPSVFLFPPKPKDTLMISRTPEVTCVVVDVSHEDPEVQFNWYVDGVEVHNAKTKPREEQFNSTFRVVSVLTVVHQDWLNGKEYKCKVSNKGLPAPIEKTISKTKGQPREPQVYTLPPSREEMTKNQVSLTCLVKGFYPSDIAVEWESNGQPENNYKTTPPMLDSDGSFFLYSKLTVDKSRWQQGNVFSCSVMHEALHAHYTQKSLSLSPGK light: DIQMTQSPSSLSASVGDSVTITCQASRDISSHLNWYQQKPGKAPELLIYYGSHLLSGVPSRFSGSGSGTDFTFTISSLEAEDAATYYCGQGNRLPYTFGQGTKVEIERTVAAPSVFIFPPSDEQLKSGTASVVCLLNNFYPREAKVQWKVDNALQSGNSQESVTEQDSKDSTYSLSSTLTLSKADYEKHKVYACEVTHQGLSSPVTKSFNRGEC
10.1 | 10.1 | Fv4-M73 (antibody, also called VH3-M73/VL3-CK) heavy: QVQLQESGPGLVKPSETLSLTCAVSGHSISHDHAWSWVRQPPGEGLEWIGFISYSGITNYNPSLQGRVTISRDNSKNTLYLQMNSLRAEDTAVYYCARSLARTTAMDYWGEGTLVTVSSASTKGPSVFPLAPSSKSTSGGTAALGCLVKDYFPEPVTVSWNSGALTSGVHTFPAVLQSSGLYSLSSVVTVPSSNFGTQTYTCNVDHKPSNTKVDKTVERKSCVECPPCPAPPVAGPSVFLFPPKPKDTLMISRTPEVTCVVVDVSQEDPEVQFNWYVDGVEVHNAKTKPREEQFNSTFRVVSVLTVVHQDWLNGKEYKCKVSNKGLPAPIEKTISKTKGQPREPQVYTLPPSQEEMTKNQVSLTCLVKGFYPSDIAVEWESNGQPENNYKTTPPMLDSDGSFFLYSKLTVDKSRWQEGNVFSCSVMHEALHAHYTQKSLSLSP light: DIQMTQSPSSLSASVGDSVTITCQASTDISSHLNWYQQKPGKAPELLIYYGSHLLSGVPSRFSGSGSGTDFTFTISSLEAEDAATYYCGQGNRLPYTFGQGTKVEIERTVAAPSVFIFPPSDEQLKSGTASVVCLLNNFYPREAKVQWKVDNALQSGNSQESVTEQDSKDSTYSLSSTLTLSKADYEKHKVYACEVTHQGLSSPVTKSFNRGEC
17 | 17 | Fv4-IgG2 (antibody, also called Fv4-IgG2ΔGK; VH3-IgG2ΔGK/VL3-CK) heavy: QVQLQESGPGLVKPSETLSLTCAVSGHSISHDHAWSWVRQPPGEGLEWIGFISYSGITNYNPSLQGRVTISRDNSKNTLYLQMNSLRAEDTAVYYCARSLARTTAMDYWGEGTLVTVSSASTKGPSVFPLAPCSRSTSESTAALGCLVKDYFPEPVTVSWNSGALTSGVHTFPAVLQSSGLYSLSSVVTVPSSNFGTQTYTCNVDHKPSNTKVDKTVERKCCVECPPCPAPPVAGPSVFLFPPKPKDTLMISRTPEVTCVVVDVSHEDPEVQFNWYVDGVEVHNAKTKPREEQFNSTFRVVSVLTVVHQDWLNGKEYKCKVSNKGLPAPIEKTISKTKGQPREPQVYTLPPSREEMTKNQVSLTCLVKGFYPSDIAVEWESNGQPENNYKTTPPMLDSDGSFFLYSKLTVDKSRWQQGNVFSCSVMHEALHNHYTQKSLSLSP light: DIQMTQSPSSLSASVGDSVTITCQASTDISSHLNWYQQKPGKAPELLIYYGSHLLSGVPSRFSGSGSGTDFTFTISSLEAEDAATYYCGQGNRLPYTFGQGTKVEIERTVAAPSVFIFPPSDEQLKSGTASVVCLLNNFYPREAKVQWKVDNALQSGNSQESVTEQDSKDSTYSLSSTLTLSKADYEKHKVYACEVTHQGLSSPVTKSFNRGEC
 | 10.9 | Fv3-M73 (antibody, also called VH4-M73/VL1-CK) heavy: QVQLQESGPGLVKPSETLSLTCAVSGHSISHDHAWSWVRQPPGEGLEWIGFISYSGITNYNPTLQGRVTISRDNSKNTLYLQMNSLRAEDTAVYYCARSLARTTAMDYWGEGTLVTVSSASTKGPSVFPLAPSSKSTSGGTAALGCLVKDYFPEPVTVSWNSGALTSGVHTFPAVLQSSGLYSLSSVVTVPSSNFGTQTYTCNVDHKPSNTKVDKTVERKSCVECPPCPAPPVAGPSVFLFPPKPKDTLMISRTPEVTCVVVDVSQEDPEVQFNWYVDGVEVHNAKTKPREEQFNSTFRVVSVLTVVHQDWLNGKEYKCKVSNKGLPAPIEKTISKTKGQPREPQVYTLPPSQEEMTKNQVSLTCLVKGFYPSDIAVEWESNGQPENNYKTTPPMLDSDGSFFLYSKLTVDKSRWQEGNVFSCSVMHEALHAHYTQKSLSLSP light: DIQMTQSPSSLSASVGDSVTITCQASRDISSHLNWYQQKPGKAPELLIYYGSHLLSGVPSRFSGSGSGTDFTFTISSLEAEDAATYYCGQGNRLPYTFGQGTKVEIERTVAAPSVFIFPPSDEQLKSGTASVVCLLNNFYPREAKVQWKVDNALQSGNSQESVTEQDSKDSTYSLSSTLTLSKADYEKHKVYACEVTHQGLSSPVTKSFNRGEC
